Experiment: soluble on expression in E. coli; label from the status in PepcDB or PDB records

Sequence | soluble on expression in E. coli
MGSDKIHHHHHHMAKIESNDSHLRGILKDELYYQIPIYQRPYQWTEENCEKLLDDLFFNYEDDREGDYFCGSLVLIAISKDSKATTYDVVDGQQRLSTFILLAKVLADLYNDCLDPKNLEHLQEGWKDRHTERKRLSFNTIGSNAEYDFQDALEHFNDSQASKNKNNKNNYLKNAICLKDYLMKKEIKNINDFIEWLYSNVKFITIICPNIDKALRIFNVLNARGLPLNATDIFKGELLKHAKEHEREEFVSRWNALSQKCSDNDLTMETLFSWYNLSQSGNF | not soluble
MNHMKKNILFDGLRSVARIGETAFVAARAGIKYATEKPSNAKLMRETFESLGSTYIKLGQFIASTPSLFPREYVEEFQGCLDQTPTLPFSYIQEVLAEEFEGRDLNQIFASIDETPLASASIAQVHAARLTTGEDVVIKVQKPGVETILYTDLNVVHWATKMLEKAIPKVKFASLSEIVEEIKIRMVREVDFIEEAQNLDDFVEYLKITNNQAATAPKVYHQFSTRRILTMERLYGVSLTDFDIVKKFAKDPSQVLITAMNTWFGSLMLCKSFHADLHAGNLMLLEDGRIGFIDFGIVGQLNPQVWTACLAFMDALQKTDYTAMAENMLKMGMTKTQIDTQVLAQDLERLFSGVLLADPQEILASKPSDLNDIMLDMVAVGERHGIKFPRDFALLFKQMLYFDRFMRVLAPYTDIYADQRLKMVQTIEPQSLLKH | not soluble
MIRILHTADWHLGQTFFGYDRAEEHKAFLDWLAEEIRQNEIDALVIAGDVFDVSNPSAASQRIYYEFIYRVTAENPKLQIVIVAGNHDSAARLEAPLPLLQAMRTEVRGVVRKLEGGEIDYDHLTIELKNREGEVEVLCMAVPFLRQGDYPVVETEGNPYMEGVRELYARLLQRLWARRKTNQAILAVGHLQATGSEIAEKDYSERTVIGGLECVSPDTFSEKIAYTALGHIHKAQRVSGRENVRYAGSPIPMSFAEKHYHHGVVMVILDEGCAVDIRRIECPQSIPLISVPGGEAASPEKIIEILRDLPEVDGEAPYLEVKVLLEEPEPMLRQEIEEALAGKKYRLARIVSAYRQEERVEKEVDGWKKGLQEMSPLQIAQSAFEKVYQAEMPADLTDLFQEAYISATRKEEEEGE | not soluble
MSLQADEQSNGKIKFSKFKVNIKNKDNKSNWTDMGTLVVEKVEYGIATGLNNDKQGGGHSSTFFSLEEEEVNNFVKAMTEGGSFKTSLYYGYKYEQSDEKGIQNKEIITKIEDINCSKHITFSGDKIAKNEGHHHHHH | not soluble
MAYRERAAWAPEGYMLPLPGACLPSLPENLPGAPRPYRKGVSAGFVFRQGDACVPVVRGMGVVAAFGGEVVKVDPDFQELSEEAWQALLERVREGASPEEMDILRGLEVHVRHPDGRTTVYAHLQAPYPGLKVGSRVHRGDPIGYVGNTGLRGGASRLLFEVWEGEPDRSAFLFQGLEGEELLRRARAFFGLP | soluble
MGSDKIHHHHHHSCGDKMNKNTGALEFDSIQVNETAHLFGDTAKPACNLTINFAYPVKSTDNKLKDSLNSYFIAACFGEGYIGEKPAQVVKEYTEHYVKEYRTDLEPMYAEDEKNKESEGSIGAWYSYYKGIESHVQLYYKNLLVYRINYNEYTGGAHGIYMTTFLNMDLINLRPLKLDDIFTGDYKEALTDLLWNQLMADKKVTTHEALEDMGYGSTGDIAPTENFYLDKDGITFYYNVYDITPYAMGPVEIKIPYEMMEHMLGSNPIIGEMKSK | not soluble
MIVSILGAGAMGSALSVPLVDNGNEVRIWGTEFDTEILKSISAGREHPRLGVKLNGVEIFWPEQLEKCLENAEVVLLGVSTDGVLPVMSRILPYLKDQYIVLISKGLIDFDNSVLTVPEAVWRLKHDLRERTVAITGPAIAREVAKRMPTTVVFSSPSESSANKMKEIFETEYFGVEVTTDIIGTEITSALKNVYSIAIAWIRGYESRKNVEMSNAKGVIATRAINEMAELIEILGGDRETAFGLSGFGDLIATFRGGRNGMLGELLGKGLSIDEAMEELERRGVGVVEGYKTAEKAYRLSSKINADTKLLDSIYRVLYEGLKVEEVLFELATFK | soluble
MNADTADEEITKLLEFLIEQTKDAFEPMRALAVFESFGQLEEDPLDRKTYHYRFHQKIAPNMDSWNNYSIESRIRLMFALAGRVRDNFLESIQSQGTVELDEKNRICEYISNDGTLTLKGDHSDSARWARRITSTTNPTKSAAFAEKFMNFLVEKTKNVVEPVSVGGIYEEFSQIDGFGLSPAAYRTRFHINIVPEINEWNSYSIEERIRLLMALGALVPEDFLERIEAEGTVDLDEKGRILKYSSNDGNLNLDKRNIATANRRNSTAAHRKRSLDRDSESGSAKNARAVKSEPKSKPQSDLHYSSESDTDDVEFVESLPGKPKLEPIDYDYDQYFNRDVSYNNYDQEEVENRNVRLSIASSMPSLESNVIKLNDFLKEVRKFLCFLEISELDELKHQIKESVVQTAGANENLEISDLCTLLDAFFFSINQKTRSTIPNDSTMPVNVFLIKFKCFLLGMESPEFLDLQEKVQRKLDESDITEKILQLSDIQHAVQYLFFSVSH | not soluble
SSSSSSPAIEPDTPDLICQLDNVQGMVDALTCVRWKRHQDALVELSEHGIVLIVEESGCLQAKVYLQRELFTKYEYGAQGRPRFGISLGLLVDCLNTFSSPGHSNTIEIKYPGPDMELLLKSVDTLNSCIYSEIRTRIPETVTWDYNFEQAGIAPLTFTVKSAALKEAIDDLEWPGSSVQISLQKEPPCVIFRGEGHGDLQIDFMYYANTDLLLAFHCDTEVSYGYKYKFLKATTANIPGNVVRENRRSKLTIGRGGMLKVQHLVSVSKALAPQVESAGYQPPSRIAYIEFFVKPEEPAD | soluble
MGSDKIHHHHHHMIGHSEVIRCFGMSGKVYFFNDSGNIQKGVHDLPPKGLACFVKIKNMMMQAKPAEVSMVDALVDPWLGAIGRDFEGYRNHCRRVFIFACTLAGAEGESREKIAIAAAFHDLGIWTDNTFDYLEPSKRLASAYLASTSKAEWTDEIKAMIEQHHKVTPWSCKPGWLVEPFRKADWIDVTLGARNFELNRSYIREIQRRYPNAGFHATLARLSFERMKTHPKDPLPMMRW | not soluble
MAKSNSNNSHNEADTLSSLLSSVGSSYDGESDSTFVSTGTTPSSSRRSRLDSFLSTTSSSKSRPRIKSKLPRSSSSGFSGTGSERSISSKRSKIGNTSGNRNKISQSARRRLLQAEIESRRNRSNKSPGSSRKSILKKSPMKKRRSLSRKSLPKKEHIPPVQKFAIIKNPAARNQVRGFVAEYAQDPEFEAFELLVDGIPFVALSLMNAHPDLRGRFKPVPPPTPMKKHTPGINSPRKRPLRRESISSVNSKSVRFTDEGSSFSKRARKSSSGDVDSSIRELGETVSDAMIDTGRQYNDLWKDRAHSVEK | not soluble
MGSDKIHHHHHHNEAQVSAVKQFVEGFNQKNVQSMQSHTTDDVKWFSISEGAMALETSDKEELGEAMQNYFSGYSSAHAKIVNLVNSGDFISTVEQVKWQNEGKWFMQCSLGVYRFKQNKIASVWYYPAHVCDATNAQVN | not soluble
MRQCTPFDTLLVFYSTWPVLKNILTNKIMPAELESVRTRQIVALRTMINLNEPVVNSGVREPVWKVLVLDRTGQDIISPLLPVKQLRELGVTLHLLIGARREPLTDVPAVYFVSPNDENIDLMSEDLKKAMYDSFYCNFISPLARPRLESLASAAVHGGAVSQVQKVVDQYLNFISLEDDLFVLRRYSENSTFSYHAMNSPGTSDVAVNAMLDSIADGLFAVCATMGIVPIIRCPKGNAAEMVAKKLDQKLRDNLRDSRNNLFTMDGVRMGLLQTSRPLLVIGDRSADLATMLHHTWTYQALMHDVLELDQNRVTISTSSTGKKKDYDMATGGSDKLWNNHKGSAFPTVAEAVQENLDDYRSKEDDIKKIKQALGLSGESEAADEALTNVLADTTAKLGSTVMSLPDLLESKRLIDLHTNIATTLLDVIKERKLDVSLSSSKSCCNTHRLVDLFYQPVTQFLSNINHQEDVLRVLIIAFLCQETVNQNGYDQMMNLLRERGIEESALKHVQKLKSISQLGSRAANSAHTEEHQGAGTKTISMFGKLLSHSSKFVMEGVKNLVPKEHNLPLTKMIDSLNTPPSSTGISSAVGINQMIGGSSQGPDIDDIYCFFDPKLMHQPTKETILLARQQSAQDVILFVVGGGNYVEYQNLVDYGKRKNLMRVTYGCTELVNPAQFCDQVSCCSLSLPLTDLSGDSPYFFCSPLEF | not soluble
AEPTTHFGYQNVPESQKAKKVAEVFHSVAAKYDLMNDLMSGGIHRLWKRFTIELSGVRSGNRVLDIAGGTGDLTRQFSRLVGPTGEVVLADINASMLKVGRDKLLDKGVSGNVSFVQADAEKLPFPDNHFDCVTIAFGLRNVTHKDEAIRSMLRVLKPGGRLLVLEFSKPSSNLLSKAYDAYSFSLLPLMGKLVTNDSESYRYLAESIRMHPDQETLKAMMVEAGFDRVTYHNMTGGIV | not soluble
RTVTLTRERIRLEDRAVKMSVKTVGKEKVGVLDIPGFYVGLTDDVKVQLQKLEKQNVSSVIIDLRSNGGGALTEAVSLSGLFIPSGPIVQVRDNNGKVREDSDTDGQVFYKGPLVVLVDRFSASASEIFAAAMQDYGRALVVGEPTFGKGTVQQYRSLNRIYDQMLRPEWPALGSVQYTIQKFYRVNGGSTQRKGVTPDIIMPTGNEETETGEKFEDNALPWDSIDAATYVKSGDLTAFEPELLKEHNARIAKDPEFQNIMKDIARFNAMKDKRNIVSLNYAVREKENNEDDATRLARLNERFKREGKPELKKLDDLPKDYQEPDPYLDETVNIALDLAKLEKARPAEQPA | not soluble
MKHYLAIDIGGTAIKYGLISETGDLLEKEEMATEAYKGGPSILEKVKGLVKTYQDQMDLAGVAISSAGMVNPDEGEIFYAGPQIPNYAGTQFKKEIEETFGLPCEVENDVNCAGLAEAISGSAKDYPVALCLTIGTGIGGCLLFNSQVFHGSSHSACEVGYLHLSDGQFQDLASTTALVQEVVLAYGDDISQWDGRRIFEQAKAGDAICIAAISKQVDYLGQGIANICYVVNPNVVVLGGGIMAQKDYLADKLKTALDSYLVSSLAKKTQLKFASHGNNAGILGAYYHFKQKNERSCSFITLEKIENNLASS | not soluble
AMGSATISRRGILVIRHGERVDQVFGKSWLQQCTTADGKYYRPDLNFPRSLPRRSNGIKDFENDPPLSSCGIFQARLAGEALLDSGVRVTAVFASPALRCVQTAKHILEELKLEKKLKIRVEPGIFEWMKWEASKATLTFLTLEELKEANFNVDLDYRPALPRCSLMPAESYDQYVERCAVSMGQIINTCPQDMGITLIVSHSSALDSCTRPLLGLPPRECGDFAQLVRKIPSLGMCFCEENREDGKWDLVNPPVKTLTHGANSVFNWRNWIS | soluble
MSLKNLITKLENEERLNQEEANALWDLDLFTLGKYAHKKRTKLHGKKVYFNINRHINPTNICADTCKFCAFSAHRKNPNPYLMTHEEIMKIVDETVKRETKEVHIVSAHNKDTTWQWYLEIFKMIKEKYPNLHVKAMTAAEIDFLHRRFKMSYEEVIEKMLEYGVDSMPGGGAEIFDEEVRKKICHGKVSSENWLKIHKLWHEKSKQSNATMLFGHIEERHHRIDHMLRLRDLQDQTGGFNAFIPLVWQRDKSFIQTDKIMDSEEILKTIAISRLVLDNIKNIKAYWATMTLNLAMVAQEFGANDLDGTIEKESIQSAGGAKSAKGTSLKTFIDMIKTSNLIPVERDSLYNELKTYEGHHHHHH | not soluble
GSHMGQLGGEEWTRHGSFVNKPTRGWLHPNDKVMGPGVSYLVRYMGCVEVLQSMRALDFNTRTQVTREAISLVCEAVPGAKGATRRRKPCSRPLSSILGRSNLKFAGMPITLTVSTSSLNLMAADCKQIIANHHMQSISFASGGDPDTAEYVAYVAKDPVNQRACHILECPEGLAQDVISTIGQAFELRFKQYLR | soluble
MLFTKASEYALLSLIYISQKETPQDVDSLALELDIPKSFLAKILQTLAKDGLLKSFKGAKGGFVLIKEPSQYTIKEIVNSAEKKDISVFECSGGTCPNNKEENCTLMPMLVNLQNKVDEFLDSITLEDIMKNNGKK | soluble

— the DeepSol protein solubility set
